Measured values published in patent US20220026415A1 (NATIONAL CANCER CENTER, published 2022).

Assays:
Assay in all cases: immunoprecipitation with anti-RARRES1 antibody from RARRES1-transfected HEK293 cells with or without nocodazole, immunoblot
[1] = target: T1, Cyclin D (endogenous, HEK293 cells) (UniProt P24385 1-295, limits assumed)
T1 construct: Printed only as 'Cyclin D'; Cyclin D1 is inferred from the antibody list; also called Cyclin D1
Experimental: (§1) The cells were lysed in a lysis buffer (20 mM Tris, pH 7.4, 5 mM EDTA, 10 mM Na₄ P₂O₇, 100 mM NaF, 1% NP-40, 1 mM PMSF, 0.2% protease inhibitor cocktail and phosphatase inhibitor). The protein concentrations of the cell lysates were measured using a Pierce BCA Protein Assay kit (Pierce, Rockford, USA). Subsequently, protein lysates were resuspended in a loading buffer, boiled for 5 minutes, and then subjected to SDS-PAGE and immunoblotting with the indicated antibodies. For immunoprecipitation, a TAP buffer (25 mM Tris, pH 7.4, 140 mM NaCl, 0.5% NP-40, 10 mM NaF, 1 mM dithiothreitol (DTT), 1 mM phenylmethylsulphonyl fluoride, 1 mM EDTA, 1 mM Na₃VO₄, 1 mM β-glycerophosphate, 10% glycerol and 0.2% protease inhibitor cocktail and phosphatase inhibitor) was added to the cell lysates, and then the cell lysates were incubated along with a RARRES1 antibody (R & D System, MN, USA) or GST beads at 4° C. Protein expression was detected by chemiluminescence using the SuperSignal West Pico Chemiluminescent Substrate (Pierce).
(§2) In addition, it was examined whether RARRES1 interacted with other CDK-Cyclin complexes, including interphase CDKs (CDK2, CDK4, and CDK6) and their binding partner Cyclins, and immunoprecipitation according to Example 1-8 was performed on 293 cells under the same conditions as those in FIG. 7C.

[2] = target: CDK2 (endogenous, HEK293 cells) (UniProt P24941 1-298)
Experimental: as §1, §2

[3] = target: Cyclin A (endogenous, HEK293 cells) (UniProt P20248 1-432, limits assumed)
Cyclin A (endogenous, HEK293 cells), sequence (P20248 whole entry): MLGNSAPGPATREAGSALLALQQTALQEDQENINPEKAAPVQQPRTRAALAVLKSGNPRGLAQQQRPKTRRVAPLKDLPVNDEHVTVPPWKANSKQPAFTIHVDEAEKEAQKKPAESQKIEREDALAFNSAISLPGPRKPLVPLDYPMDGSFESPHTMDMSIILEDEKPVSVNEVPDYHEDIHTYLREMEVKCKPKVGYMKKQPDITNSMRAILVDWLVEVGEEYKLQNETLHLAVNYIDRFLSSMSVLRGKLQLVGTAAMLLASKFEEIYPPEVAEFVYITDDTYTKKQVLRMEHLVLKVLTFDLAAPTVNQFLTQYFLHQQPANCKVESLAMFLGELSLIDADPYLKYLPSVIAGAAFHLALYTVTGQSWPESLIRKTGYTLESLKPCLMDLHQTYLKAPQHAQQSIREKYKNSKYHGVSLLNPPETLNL
Experimental: as §1, §2

[4] = target: CDK4 (endogenous, HEK293 cells) (UniProt P11802 2-303)
CDK4 (endogenous, HEK293 cells), sequence (P11802 2-303 limits assumed): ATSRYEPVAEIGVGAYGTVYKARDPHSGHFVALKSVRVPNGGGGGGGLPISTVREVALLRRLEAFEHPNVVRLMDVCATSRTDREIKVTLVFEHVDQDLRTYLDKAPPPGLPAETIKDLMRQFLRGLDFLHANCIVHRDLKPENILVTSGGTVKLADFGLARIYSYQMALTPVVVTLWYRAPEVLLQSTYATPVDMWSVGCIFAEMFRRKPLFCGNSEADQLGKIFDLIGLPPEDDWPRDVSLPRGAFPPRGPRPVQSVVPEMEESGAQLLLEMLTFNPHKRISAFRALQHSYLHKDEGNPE
Experimental: as §1, §2

Measured: binding result

T1 sequence (P24385 whole entry): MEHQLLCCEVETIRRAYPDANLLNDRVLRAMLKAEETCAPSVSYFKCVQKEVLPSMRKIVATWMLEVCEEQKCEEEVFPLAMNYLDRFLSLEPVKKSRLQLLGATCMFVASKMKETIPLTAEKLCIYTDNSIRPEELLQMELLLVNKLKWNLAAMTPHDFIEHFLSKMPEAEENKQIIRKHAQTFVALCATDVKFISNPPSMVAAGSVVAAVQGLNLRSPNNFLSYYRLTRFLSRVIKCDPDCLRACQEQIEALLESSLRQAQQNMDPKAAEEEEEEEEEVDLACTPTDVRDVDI

B1: retinoic acid receptor responder 1 (RARRES1), isoform 1, wild type, overexpressed in HEK293 cells (other)
chain: MQPRRQRLPAPWSGPRGPRPTAPLLALLLLLAPVAAPAGSGDPDDPGQPQDAGVPRRLLQQAARAALHFFNFRSGSPSALRVLAEVQEGRAWINPKEGCKVHVVFSTERYNPESLLQEGEGRLGKCSARVFFKNQKPRPTINVTCTRLIEKKKRQQEDYLLYKQMKQLKNPLEIVSIPDNHGHIDPSLRLIWDLAFLGSSYVMWEMTTQVSHYYLAQLTSVRQWKTNDDTIDFDYTVLLHELSTQEIIPCRIHLVWYPGKPLKVKYHCQELQTPEEASGTEEGSAVVPTELSNF
notes: also called RARRES1-1
no binding: all assays above
